Laboratory results from the supplement of paper PMC10567573.

B1: C10orf62 (parent)
chain: RALEEVEMKLQKNFLTQRENTIAG

Variants of: B1
Test: protein stability index of a GFP-peptide fusion (GPS, HEK-293T) (PSI 1-6); higher = more stable
Conditions: c terminus: a fixed tail appended
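Also: lentivirally expressed fusions sorted by FACS into six bins by GFP to DsRed ratio, PSI derived from sequencing read proportions per bin multiplied by bin number.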

Point of comparison: RAFEEVEMKLQKNFLTQRENTIAG [L3F], protein stability index 4.04. Against it:
- RALEEVEMFLQKNFLTQRENTIAG [K9F] — lower, 2.24
- RALEEVEMLLQKNFLTQRENTIAG [K9L] — lower, 1.73
- RALEEVEMMLQKNFLTQRENTIAG [K9M] — lower, 2.79
- RALEEVEMSLQKNFLTQRENTIAG [K9S] — lower, 3.06
- RALEEVEMDLQKNFLTQRENTIAG [K9D] — higher, 4.13
- RALEEVEMELQKNFLTQRENTIAG [K9E] — lower, 3.9
- RALEEVEMGLQKNFLTQRENTIAG [K9G] — lower, 3.75
- RALEEVEMQLQKNFLTQRENTIAG [K9Q] — lower, 3.13
- RALEEVEMWLQKNFLTQRENTIAG [K9W] — lower, 1.4
- RALEEVEMNLQKNFLTQRENTIAG [K9N] — lower, 2.98
- RALEEVEMRLQKNFLTQRENTIAG [K9R] — lower, 2.31
- RALEEVEMHLQKNFLTQRENTIAG [K9H] — lower, 2.93
- RALEEVEMVLQKNFLTQRENTIAG [K9V] — lower, 2.55
- RALEEVEMYLQKNFLTQRENTIAG [K9Y] — lower, 1.67
- RALEEVEMPLQKNFLTQRENTIAG [K9P] — lower, 3.51
- RALEEVEMILQKNFLTQRENTIAG [K9I] — lower, 2.08
- RALEEVEMALQKNFLTQRENTIAG [K9A] — lower, 3.09
- RALEEVEMTLQKNFLTQRENTIAG [K9T] — lower, 3.4
- RALEEVEMCLQKNFLTQRENTIAG [K9C] — lower, 2.41
- RACEEVEMKLQKNFLTQRENTIAG [L3C] — lower, 4.02
- RAWEEVEMKLQKNFLTQRENTIAG [L3W] — lower, 2.95
- RAKEEVEMKLQKNFLTQRENTIAG [L3K] — higher, 4.33
- RAAEEVEMKLQKNFLTQRENTIAG [L3A] — higher, 4.17
- RATEEVEMKLQKNFLTQRENTIAG [L3T] — higher, 4.12
- RAEEEVEMKLQKNFLTQRENTIAG [L3E] — higher, 5.08
- RASEEVEMKLQKNFLTQRENTIAG [L3S] — higher, 4.05
- RAYEEVEMKLQKNFLTQRENTIAG [L3Y] — lower, 3.5
- RAQEEVEMKLQKNFLTQRENTIAG [L3Q] — higher, 4.47
- RAVEEVEMKLQKNFLTQRENTIAG [L3V] — higher, 4.27
- RANEEVEMKLQKNFLTQRENTIAG [L3N] — higher, 4.91
- RAIEEVEMKLQKNFLTQRENTIAG [L3I] — higher, 4.17
- RAGEEVEMKLQKNFLTQRENTIAG [L3G] — higher, 4.31
- RAHEEVEMKLQKNFLTQRENTIAG [L3H] — higher, 4.34
- RADEEVEMKLQKNFLTQRENTIAG [L3D] — higher, 4.8
- RAREEVEMKLQKNFLTQRENTIAG [L3R] — higher, 4.09
- RAPEEVEMKLQKNFLTQRENTIAG [L3P] — higher, 4.26
- RAMEEVEMKLQKNFLTQRENTIAG [L3M] — lower, 3.86
- RALELVEMKLQKNFLTQRENTIAG [E5L] — lower, 2
- RALEQVEMKLQKNFLTQRENTIAG [E5Q] — lower, 3.22
- RALEPVEMKLQKNFLTQRENTIAG [E5P] — lower, 3.19
- RALEFVEMKLQKNFLTQRENTIAG [E5F] — lower, 2.11
- RALEWVEMKLQKNFLTQRENTIAG [E5W] — lower, 1.85
- RALEMVEMKLQKNFLTQRENTIAG [E5M] — lower, 2.23
- RALESVEMKLQKNFLTQRENTIAG [E5S] — lower, 3.51
- RALEGVEMKLQKNFLTQRENTIAG [E5G] — lower, 3.6
- RALENVEMKLQKNFLTQRENTIAG [E5N] — lower, 3.98
- RALEYVEMKLQKNFLTQRENTIAG [E5Y] — lower, 2.27
- RALEIVEMKLQKNFLTQRENTIAG [E5I] — lower, 1.93
- RALEAVEMKLQKNFLTQRENTIAG [E5A] — lower, 2.7
- RALEKVEMKLQKNFLTQRENTIAG [E5K] — lower, 3.76
- RALEHVEMKLQKNFLTQRENTIAG [E5H] — lower, 3.02
- RALERVEMKLQKNFLTQRENTIAG [E5R] — lower, 3.12
- RALETVEMKLQKNFLTQRENTIAG [E5T] — lower, 3.02
- RALEDVEMKLQKNFLTQRENTIAG [E5D] — lower, 3.67
- RALECVEMKLQKNFLTQRENTIAG [E5C] — lower, 2.21
- RALEVVEMKLQKNFLTQRENTIAG [E5V] — lower, 1.51
- RALEEVEMKNQKNFLTQRENTIAG [L10N] — higher, 4.25
- RALEEVEMKYQKNFLTQRENTIAG [L10Y] — lower, 3.67
- RALEEVEMKAQKNFLTQRENTIAG [L10A] — higher, 4.13
- RALEEVEMKTQKNFLTQRENTIAG [L10T] — higher, 4.4
- RALEEVEMKGQKNFLTQRENTIAG [L10G] — higher, 4.29
- RALEEVEMKDQKNFLTQRENTIAG [L10D] — higher, 4.56
- RALEEVEMKVQKNFLTQRENTIAG [L10V] — the same, 4.04
- RALEEVEMKQQKNFLTQRENTIAG [L10Q] — lower, 3.22
- RALEEVEMKMQKNFLTQRENTIAG [L10M] — lower, 3.75
- RALEEVEMKFQKNFLTQRENTIAG [L10F] — lower, 3.37
- RALEEVEMKIQKNFLTQRENTIAG [L10I] — lower, 3.5
- RALEEVEMKWQKNFLTQRENTIAG [L10W] — lower, 2.88
- RALEEVEMKSQKNFLTQRENTIAG [L10S] — higher, 4.66
- RALEEVEMKHQKNFLTQRENTIAG [L10H] — lower, 4
- RALEEVEMKKQKNFLTQRENTIAG [L10K] — higher, 4.35
- RALEEVEMKEQKNFLTQRENTIAG [L10E] — higher, 5.17
- RALEEVEMKPQKNFLTQRENTIAG [L10P] — higher, 4.4
- RALEEVEMKCQKNFLTQRENTIAG [L10C] — lower, 3.58
- RALEEVEMKRQKNFLTQRENTIAG [L10R] — lower, 3.4
- RALEEVFMKLQKNFLTQRENTIAG [E7F] — lower, 2.17
- RALEEVHMKLQKNFLTQRENTIAG [E7H] — lower, 2.17
- RALEEVIMKLQKNFLTQRENTIAG [E7I] — lower, 3.36
- RALEEVCMKLQKNFLTQRENTIAG [E7C] — lower, 1.8
- RALEEVTMKLQKNFLTQRENTIAG [E7T] — lower, 2.6
- RALEEVYMKLQKNFLTQRENTIAG [E7Y] — lower, 2.38
- RALEEVSMKLQKNFLTQRENTIAG [E7S] — lower, 2.97
- RALEEVQMKLQKNFLTQRENTIAG [E7Q] — lower, 3.35
- RALEEVAMKLQKNFLTQRENTIAG [E7A] — lower, 2.02
- RALEEVNMKLQKNFLTQRENTIAG [E7N] — lower, 3.61
- RALEEVGMKLQKNFLTQRENTIAG [E7G] — lower, 2.84
- RALEEVMMKLQKNFLTQRENTIAG [E7M] — lower, 1.33
- RALEEVKMKLQKNFLTQRENTIAG [E7K] — lower, 1.96
- RALEEVPMKLQKNFLTQRENTIAG [E7P] — lower, 3.98
- RALEEVRMKLQKNFLTQRENTIAG [E7R] — lower, 2.29
- RALEEVDMKLQKNFLTQRENTIAG [E7D] — lower, 3.69
- RALEEVVMKLQKNFLTQRENTIAG [E7V] — lower, 1.27
- RALEEVEMKLGKNFLTQRENTIAG [Q11G] — lower, 3.63
